Experimental data published in ChEMBL document CHEMBL2074463, “Characterization of the hepatic canalicular membrane transport of a model oligopeptide: ditekiren” (J Pharmacol Exp Ther, 1997).

Tested on: CC[C@H](C)[C@H](NC(=O)[C@@H](C[C@H](O)[C@H](CC(C)C)NC(=O)[C@H](Cc1c[nH]cn1)N(C)C(=O)[C@H](Cc1ccccc1)NC(=O)[C@@H]1CCCN1C(=O)OC(C)(C)C)C(C)C)C(=O)NCc1ccccn1
Experiment: TP_TRANSPORTER: uptake, inhibited by Cyclosporine, Nicardipine, Daunomycin, Verapamil, Reserpine, Rhodamine 123 and Vinblastine in bile canalicular membrane vesicles
Assay type: functional, cell membranes
Conditions: Rattus norvegicus; Bile canalicular membrane vesicle

Substance: Multidrug resistance protein 1a (Rattus norvegicus), Q6PSM0
- Km: 19.1 µM
